Consider 94 variants from the supplement of paper PMC10567573.

The labels stand for the following.
B1: HESX1 (parent)
chain: SKYENYFSASERLSLKRELSWYRG
B2: TRIM63 (parent)
chain: FRCPTCRHEVIMDRHGVYGLQRNL
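Also: lentivirally expressed fusions sorted by FACS into six bins by GFP to DsRed ratio, PSI derived from sequencing read proportions per bin multiplied by bin number.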

The variants in the first data set derive from B1. In words: protein stability index of a GFP-peptide fusion (GPS, HEK-293T) (PSI 1-6); higher = more stable. As to conditions: c terminus: a fixed tail appended.
As to SKGENYFSASERLSLKRELSWYRG [Y3G], the protein stability index worked out at 2.75.

As to SKVENYFSASERLSLKRELSWYRG [Y3V], the protein stability index was found to be 3.67.

As to SKLENYFSASERLSLKRELSWYRG [Y3L], the protein stability index was determined as 1.97.

For SKRENYFSASERLSLKRELSWYRG [Y3R], the protein stability index was found to be 2.13.

Consider SKMENYFSASERLSLKRELSWYRG [Y3M], for which the protein stability index was 1.59.

As for SKCENYFSASERLSLKRELSWYRG [Y3C], the protein stability index was 1.79.

In the case of SKNENYFSASERLSLKRELSWYRG [Y3N], the protein stability index was found to be 1.72.

As for SKSENYFSASERLSLKRELSWYRG [Y3S], the protein stability index amounted to 2.97.

In the case of SKQENYFSASERLSLKRELSWYRG [Y3Q], the protein stability index was found to be 1.61.

On to SKDENYFSASERLSLKRELSWYRG [Y3D], for which the protein stability index was 2.29.

Take SKIENYFSASERLSLKRELSWYRG [Y3I]: the protein stability index worked out at 2.26.

Consider SKPENYFSASERLSLKRELSWYRG [Y3P], for which the protein stability index was found to be 1.66.

As to SKFENYFSASERLSLKRELSWYRG [Y3F], the protein stability index came out at 1.48.

On to SKKENYFSASERLSLKRELSWYRG [Y3K], for which the protein stability index stood at 3.46.

As to SKYENAFSASERLSLKRELSWYRG [Y6A], the protein stability index came out at 2.85.

For SKYLNYFSASERLSLKRELSWYRG [E4L], the protein stability index is 2.23.

As for SKYSNYFSASERLSLKRELSWYRG [E4S], the protein stability index amounted to 1.27.

Turning to SKYVNYFSASERLSLKRELSWYRG [E4V], the protein stability index is 2.1.

For the variant SKYHNYFSASERLSLKRELSWYRG [E4H], the protein stability index turned out to be 1.17.

For the variant SKYNNYFSASERLSLKRELSWYRG [E4N], the protein stability index came to 1.71.

Turning to SKYPNYFSASERLSLKRELSWYRG [E4P], the protein stability index is 2.06.

Regarding SKYINYFSASERLSLKRELSWYRG [E4I], the protein stability index was determined as 1.26.

In the case of SKYRNYFSASERLSLKRELSWYRG [E4R], the protein stability index turned out to be 2.54.

For the variant SKYQNYFSASERLSLKRELSWYRG [E4Q], the protein stability index turned out to be 1.56.

With SKYMNYFSASERLSLKRELSWYRG [E4M], the protein stability index was 2.02.

Turning to SKYYNYFSASERLSLKRELSWYRG [E4Y], the protein stability index was 2.33.

Regarding SKYANYFSASERLSLKRELSWYRG [E4A], the protein stability index is 1.61.

Consider SKYDNYFSASERLSLKRELSWYRG [E4D], for which the protein stability index worked out at 2.45.

Regarding SKYCNYFSASERLSLKRELSWYRG [E4C], the protein stability index stood at 2.24.

As to SKYTNYFSASERLSLKRELSWYRG [E4T], the protein stability index turned out to be 2.98.

SKYGNYFSASERLSLKRELSWYRG [E4G]: the protein stability index is 2.13.

As to AKYENYFSASERLSLKRELSWYRG [S1A], the protein stability index worked out at 1.71.

Regarding LKYENYFSASERLSLKRELSWYRG [S1L], the protein stability index was determined as 2.06.

In the case of EKYENYFSASERLSLKRELSWYRG [S1E], the protein stability index stood at 1.76.

Turning to KKYENYFSASERLSLKRELSWYRG [S1K], the protein stability index amounted to 1.4.

Take YKYENYFSASERLSLKRELSWYRG [S1Y]: the protein stability index was 2.77.

Consider CKYENYFSASERLSLKRELSWYRG [S1C], for which the protein stability index was 2.04.

As to NKYENYFSASERLSLKRELSWYRG [S1N], the protein stability index worked out at 1.74.

Regarding GKYENYFSASERLSLKRELSWYRG [S1G], the protein stability index was 1.9.

With IKYENYFSASERLSLKRELSWYRG [S1I], the protein stability index was 1.61.

As to MKYENYFSASERLSLKRELSWYRG [S1M], the protein stability index amounted to 1.36.

Turning to HKYENYFSASERLSLKRELSWYRG [S1H], the protein stability index worked out at 2.34.

With SKYEFYFSASERLSLKRELSWYRG [N5F], the protein stability index turned out to be 1.03.

Consider SKYEPYFSASERLSLKRELSWYRG [N5P], for which the protein stability index is 1.63.

As to SKYEDYFSASERLSLKRELSWYRG [N5D], the protein stability index worked out at 1.71.

Regarding SKYEHYFSASERLSLKRELSWYRG [N5H], the protein stability index was found to be 1.9.

SKYEIYFSASERLSLKRELSWYRG [N5I]: the protein stability index was 2.23.

Turning to SKYEQYFSASERLSLKRELSWYRG [N5Q], the protein stability index turned out to be 2.12.

As for SKYEAYFSASERLSLKRELSWYRG [N5A], the protein stability index turned out to be 2.03.

In the case of SKYEKYFSASERLSLKRELSWYRG [N5K], the protein stability index was 1.42.

For SKYEYYFSASERLSLKRELSWYRG [N5Y], the protein stability index is 2.24.

As for SKYETYFSASERLSLKRELSWYRG [N5T], the protein stability index stood at 2.24.

Consider SKYECYFSASERLSLKRELSWYRG [N5C], for which the protein stability index is 1.51.

Regarding SCYENYFSASERLSLKRELSWYRG [K2C], the protein stability index stood at 2.23.

For SSYENYFSASERLSLKRELSWYRG [K2S], the protein stability index was 1.82.

As to SVYENYFSASERLSLKRELSWYRG [K2V], the protein stability index worked out at 1.77.

In the case of SEYENYFSASERLSLKRELSWYRG [K2E], the protein stability index amounted to 2.05.

As to SHYENYFSASERLSLKRELSWYRG [K2H], the protein stability index is 1.8.

As to SPYENYFSASERLSLKRELSWYRG [K2P], the protein stability index was 1.96.

Regarding SFYENYFSASERLSLKRELSWYRG [K2F], the protein stability index turned out to be 1.57.

Consider SRYENYFSASERLSLKRELSWYRG [K2R], for which the protein stability index came to 1.64.

For the variant SMYENYFSASERLSLKRELSWYRG [K2M], the protein stability index was 1.7.

As for SQYENYFSASERLSLKRELSWYRG [K2Q], the protein stability index came to 2.65.

For the variant SYYENYFSASERLSLKRELSWYRG [K2Y], the protein stability index came out at 1.81.

As to SLYENYFSASERLSLKRELSWYRG [K2L], the protein stability index was 1.25.

Turning to SDYENYFSASERLSLKRELSWYRG [K2D], the protein stability index was found to be 2.19.

Consider SIYENYFSASERLSLKRELSWYRG [K2I], for which the protein stability index amounted to 1.45.

For the variant SGYENYFSASERLSLKRELSWYRG [K2G], the protein stability index came out at 2.31.

On to STYENYFSASERLSLKRELSWYRG [K2T], for which the protein stability index came out at 2.34.

Turning to SAYENYFSASERLSLKRELSWYRG [K2A], the protein stability index was 2.09.

The variants in a further data set derive from B2. Described as above. As to conditions: c terminus: a fixed tail appended.
Take FRCPTCRHEVIMDRHGVYGLQRLL [N23L]: the protein stability index came out at 1.7.

On to FRCPTCRHEVIMDRHGVYGLQRPL [N23P], for which the protein stability index was 1.56.

As to FRCPTCRHEVIMDRHGVYGLQRAL [N23A], the protein stability index was 1.79.

Take FRCPTCRHEVIMDRHGVYGLQREL [N23E]: the protein stability index came out at 2.05.

Consider FRCPTCRHEVIMDRHGVYGLQRIL [N23I], for which the protein stability index was found to be 1.89.

Regarding FRCPTCRHEVIMDRHGVYGLQRDL [N23D], the protein stability index worked out at 2.55.

With FRCPTCRHEVIMDRHGVYGLQRML [N23M], the protein stability index was found to be 1.47.

FRCPTCRHEVIMDRHGVYGLQRRL [N23R]: the protein stability index worked out at 2.54.

As for FRCPTCRHEVIMDRHGVYGLQRKL [N23K], the protein stability index was found to be 2.04.

Take FRCPTCRHEVIMDRHGVYGLQRCL [N23C]: the protein stability index was determined as 2.2.

Take FRCPTCRHEVIMDRHGVYGLQRVL [N23V]: the protein stability index was 2.96.

In the case of FRCPTCRHEVIMDRHGVYGLQRQL [N23Q], the protein stability index was 2.67.

For FRCPTCRHEVIMDRHGVYGLQRWL [N23W], the protein stability index was found to be 2.79.

On to FRCPTCRHEVIMDRHGVYGLQRFL [N23F], for which the protein stability index came out at 2.02.

Turning to FRCPTCRHEVIMDRHGVYGLQRSL [N23S], the protein stability index came out at 2.14.

For the variant FRCPTCRHEVIMDRHGVYGLQRGL [N23G], the protein stability index came to 2.82.

With FRCPTCRHEVIMDRHGVYGLQRYL [N23Y], the protein stability index was 1.25.

Consider FRCPTCRHEVIMDRHGVYGLQRTL [N23T], for which the protein stability index is 1.67.

Regarding FRCPTCRHEVIMDRHGVYGLQRHL [N23H], the protein stability index worked out at 2.5.

As for FRCPTCRHEVIMDRHGVYGLQRNA [L24A], the protein stability index amounted to 2.34.

Turning to FRCPTCRHEVIMDRHGVYGLQRNM [L24M], the protein stability index worked out at 2.03.

With FRCPTCRHEVIMDRHGVYGLQRNI [L24I], the protein stability index came out at 1.69.

For FRCPTCRHEVIMDRHGVYGLQRNF [L24F], the protein stability index came to 1.61.

As to FRCPTCRHEVIMDRHGVYGLQRND [L24D], the protein stability index was found to be 2.6.
